Assay: soluble on expression in E. coli; label from the status in PepcDB or PDB records

Row | Sequence | soluble on expression in E. coli
1 | MKRIGIDVGGTNTDAVLIDGDTIVASIKVPTTQDVLSGVKAALAHVAGHVGAADRPIDAVMIGTTHFTNAVVERARLERVAALRIALPTGSSLPPMCDWPKDLHDAVDPLIFMVHGGHEYDGSPLVPMIPDEIREAAMKIRDAGITSIAISATFSPLTTECEVRAAEIVRSVIPDARITLSHTLGRIGLLERENVALLNAALQTLGKTTVQAFSDALREAGVKAPFYLTQNDGTVSLADVAAANPVHSFASGPTNSMRGAAFLTGLSDAMVVDVGGTTSDIGCLVGGFPREANNIVHIGGVRTLFRMPDLLPIALGGGTIVDPETGKIGPRSVGYRILTEARVFGGETLTTSDIAVAAGLIEIGDRDRVKDLDSTFVQATLQRIRNMVADSFDQMKTSAEDVPLVAVGGGAFLIPETVPGASDVLRVENAGVANALGAAMAQVSGEVDQVFSGLSRDEALAKAETEAQNAAVASGAERTSLKTLEVEDIPIAYLPGGARRVRVRVIGDIAFHLEHHHHHH | not soluble
2 | MKRILVSGGAGFIGSHLCTRLVNEGHDVICLDNFFTGSKDNIKHLMGNHHFEVVRHDVTYPYSAEVDEIYNLACPASPIHYQHDPIQTAKTSVMGAINMLGLAMRLDAKILQASTSEVYGDPIIHPQPESYWGNVNPVGYRSCYDEGKRCAETLFMDYYRQNQTRIKIIRIFNTYGPRMLPNDGRVVSNFIIQALNNEDITIYGDGKQTRSFQYIDDLIEGMVRMMDTEDDFTGPINIGNPNEFPVLELAERVIRMTGSTSKIVFKPLPTDDPKQRQPDIKLAKEKLGWQPTVELEDGLKRMIEYFKNV | not soluble
3 | MKRIVILGGGFGGLYTALRVSQLPWETQQKPEIVLVDQSDRFLFSPLLYELLTGELQSWEIAPPFIELLEGTGIRFYQAVVSGIDIDQQRVHLQDGPEIPYDRLVLTLGGETPLDLVPGAISYAYPFRTIADTYRLEERLRVLEESDAEKIRVAIVGAGYSGVELACKLADRLGERGRFRLVEISDQILRTSPDFNREAAKKALDAKGVFIDLETKVESIGQNTISLEYKNQVDTIPVDLVIWTVGTRVTNVVKSLPFKQNQRGQITNTPTLQVLDHPDIFALGDLADCIDAEGQQVPATAQAAFQQADYAAWNIWASLTQRPLLPFRLEHHHHHH | soluble
4 | MKRKESAFKSMLKQAAPPIELDAVWEDIRERFVKEPAFEDITLESERKRIFKDFMHVLEHECQH | soluble
5 | MKRLQAFKFQLRPGGQQECEMRRFAGACRFVFNRALARQNENHEAGNKYIPYGKMASWLVEWKNATETQWLKDSPSQPLQQSLKDLERAYKNFFRKRAAFPRFKKRGQNDAFRYPQGVKLDQENSRIFLPKLGWMRYRNSRQVTGVVKNVTVSQSCGKWYISIQTESEVSTPVHPSASMVGLDAGVAKLATLSDGTVFEPVNSFQKNQKKLARLQRQLSRKVKFSNNWQKQKRKIQRLHSCIANIRRDYLHKVTTAVSKNHAMIVIEDLKVSNMSKSAAGTVSQPGRNVRAKSGLNRSILDQGWYEMRRQLAYKQLWRGGQVLAVPPAYTSQRCAYCGHTAKENRLSQSKFRCQVCGYTANADVNGARNILAAGHAVLACGEMVQSGRPLKQEPTEMIQATALEHHHHHH | not soluble
6 | MKRMLVGCLAAALLFSSGWATAEAKGKQQSKPKWADKNKDGIPDDWELKYKLGLGKNVANQDKDRDGLTNRVEYNLRLNPTKTDTDKDKILDGDEDTDRDGLTNSAEVALGTKPEDADSDNDHVKDGAEKKGKAQLANVVQKLELQMKTAANQTIKIDYHWSDRHSHLHIKDQTGEVTTNDVQSLINDLQASPSLSNDEVIAKIQTLFSLDTPFRLELEWKYGSGRARKLSVKQDEDKGENAGQPGDDQDDDDQGHDQDGHDQNHDQDDDDYDGGNVGGDDGNSSE | not soluble
7 | MKRSKRFAVLAQRPVNQDGLIGEWPEEGLIAMDSPFDPVSSVKVDNGLIVELDGKRRDQFDMIDRFIADYAINVERTEQAMRLEAVEIARMLVDIHVSREEIIAITTAITPAKAVEVMAQMNVVEMMMALQKMRARRTPSNQCHVTNLKDNPVQIAADAAEAGIRGFSEQETTVGIARYAPFNALALLVGSQCGRPGVLTQCSVEEATELELGMRGLTSYAETVSVYGTEAVFTDGDDTPWSKAFLASAYASRGLKMRYTSGTGSEALMGYSESKSMLYLESRCIFITKGAGVQGLQNGAVSCIGMTGAVPSGIRAVLAENLIASMLDLEVASANDQTFSHSDIRRTARTLMQMLPGTDFIFSGYSAVPNYDNMFAGSNFDAEDFDDYNILQRDLMVDGGLRPVTEAETIAIRQKAARAIQAVFRELGLPPIADEEVEAATYAHGSNEMPPRNVVEDLSAVEEMMKRNITGLDIVGALSRSGFEDIASNILNMLRQRVTGDYLQTSAILDRQFEVVSAVNDINDYQGPGTGYRISAERWAEIKNIPGVVQPDTIE | soluble
8 | MKRVLVVDDEESITSSLSAILEEEGYHPDTAKTLREAEKKIKELFFPVIVLDVWMPDGDGVNFIDFIKENSPDSVVIVITGHGSVDTAVKAIKKGAYEFLEKPFSVERFLLTIKHAFEEYSKKAPPQEEIEFVGEHPKILEIKRLIPKIAKSKAPVLITGESGTGKEIVARLIHRYSGRKGAFVDLNCASIPQELAESELFGHEKGAFTGALTRKKGKLELADQGTLFLDEVGELDQRVQAKLLRVLETGSFTRLGGNQKIEVDIRVISATNKNLEEEIKKGNFREDLYYRLSVFQIYLPPLRERGKDVILLAEYFLKKFAKEYKKNCFELSEETKEYLMKQEWKGNVRELKNLIERAVILCEGEVIKPEDLGLKEKSWRDLSYLLKIKELKEAKKEFEKIFIEEKLREYDYDLKRTAEEIGIDLSNLYRKIKSLNIRVKSS | soluble
9 | MKSILEQLSSMTVVVADTGDLDSIKKFQPRDATTNPSLILAAAKNPDYVKLIDKAIESSENTLPNGFSEIELIKETVDQVSVFFGKEILKIISGRVSTEVDARLSFDTEATVKKARKLINLYKNFGIEKERILIKIAATWEGIKAAEILEKEGIKCNLTLLFNFCQAVTCANANITLISPFVGRILDWHKAKTGKTSFIGAEDPGVISVTQIYKYFKEKGFKTEVMGASFRNLDEIKELAGCDLLTIAPKFLEELKREKGVLIRKLDASTKINNSIDYKFEEKDFRLSMLEDQMASEKLSEGITGFSKAIEELEELLIERLSEMKNHKLISAN | soluble
10 | MKSKFFAQNRERLVNTLPDESITILFAGQAPHMSADAHYKFVPNRNFYYVTGIDEPNVIFMLKKFGNSVEETLFIEKSDPVMEKWVGKTVSNEEAEKISGIKKVIYLDSFEKTMSNIFFTENVKHLYLDLECREWKGTETKTLAFAKHVREQYPHVTIGNVYPNICELRVFKTDEEIEIIKEAIAVTKDGIYNVLKHAKADMMEYELEAQFDFTLKSSGIKHHAFNTILASGKNATVLHYEDNDAQIQNGDLVLLDLGAQKDYYNADISYTFPANGTFSSRQKQIYNIVLNALKETTEIIKPGLKFAALNEHAKKVLAEGCKAVGLIQEDEELSKYYYHGVSHFLGLDTHDVGTYKDRVLEEGMVITIEPGLYIEEESIGIRIEDDILVTKDGHENLSKDIIREVEEIEEFMRENNVNVKQDEVVTK | soluble
11 | MKSLGADLDKALGRLSGGLYIITAKKGDVSSAMLASWVNQASFKPLGFSIAVAKDRAIESLMQVGDRFVLNVLEEGNYQPLMRHFLKRFAPGADRFEGVKTQPAENGAPILGDALAYMECEVVSRMDCGDHWAVYSTVYAGRVSKSEALTAVHHRKVGNHYLEHHHHHH | not soluble
12 | MKSSSPISSLTTIISTGTNLGSGTDDDIYFGIHLNNGQKKEWLLDKETYNDFENGATDEYYLYINDMDFLPTMVDKVWVRKNSTGSFAGNWFFKALRIDANGNDVLSVSPNEWITDSNSQAEFNSDWSSVTNLTDPEFLEHHHHHH | soluble
13 | MKTAIVTDSASYLSAADVEKYHIHVVPITVIFGHQTYLENVEITSKEFYERMRTAPELPTTTQITLGQMQTTYDQLAKAGYDAVISIHLSSGITSFITNLESYLPNVTNIKVYPFDSLITAGGEAYMVLLAAKLVTEGYSPEQVIAQLKKIRETTGVYFVVDNLSHLVRTGRLSNASGLVGNLLRIKPVLTFQDGKIVAIQKERTMRRAYAAIKAKLAAEIAAVDYPLRVTIENGNNPKLQAEWTADLKASFPDLTIDEGEIGPVVGVHVGEGVMGLIWARDWEKWTI | not soluble
14 | MKTIRYALKKEKEMMKKFIAPLLALLVSGCQIDPYTHAPTLTSTDWYDVGMEDAISGSAIKDDDAFSDSQADRGLYLKGYAEGQKKTCQTDFTYARGLSGKSFPASCNNVENASQLHEVWQKGADENASAIRLN | not soluble
15 | MKTISNEQLTIQVSPHGAELCSIFANGKEYLWQADPAFWKRHSPVLFPIVGSVWENQYRNEGIAYTLSQHGFARDMEFTLVSEKEDEVRYHLVSNEETLRKFPFPFCLEIGYRIQGKQIEVIWEVKNTGEKEMYFQIGAHPAFYWPDFNADTQNRGFFGFDKEEGLKYILISEKGCADPSTEYSLELTDGLLPLDTHTFDKDALIIENEQIHKVTLYTKEKKAYLSLHFHAPVVGLWSPPAKNAPFVCIEPWYGRCDRAHYTGEYKDKDWMQHLQPEETFRGGYTIEIDELEHHHHHH | not soluble
16 | MKTKEDMQELYFPTPKLIEWENGVRQYSTVRGDTEVLMSYVPPHTNVEPHQHKEVQIGMVVSGELMMTVGDVTRKMTALESAYIAPPHVPHGARNDTDQEVIAIDIKRLKADETYTSPEDYFLDIFKTRDLLPGMEVTFFVEDWVEIMLAKIPGNGGEMPFHKHRNEQIGICIGGGYDMTVEGCTVEMKFGTAYFCEPREDHGAINRSEKESKSINIFFPPRYNRAKAKKMKADELEHHHHHH | soluble
17 | MKTKLMTLQDATGFFRDGMTIMVGGFMGIGTPSRLVEALLESGVRDLTLIANDTAFVDTGIGPLIVNGRVRKVIASHIGTNPETGRRMISGEMDVVLVPQGTLIEQIRCGGAGLGGFLTPTGVGTVVEEGKQTLTLDGKTWLLERPLRADLALIRAHRCDTLGNLTYQLSARNFNPLIALAADITLVEPDELVETGELQPDHIVTPGAVIDHIIVSQESK | soluble
18 | MKTLEAIKKELGEYEGKNIKIMEVCGTHTSSIFKNGIRSLISPRIQLISGPGCPVCVTASSYIDRLVEYSLKDNHCVLTFGDMMKVKGHKLSLTEAKATGGNVKILYSPLSAVKIAIKSPETQFIFAAVGFETTAPIYALMIEEIIKNNIKNLKLMTSIKTIIPAISYICENEKNIDAFLCPGHVSVIIGSSVYTDMALKYRKPFVIGGFEGGHIIAAIYEIIRQISNNEYSMKNMYQSAVSPEGNQKAKSLIDKYFEAADDYWRGIGIIKNSGLRLRTEYRDFDAGSTIFEDADAAPSGCKCADVILGRITPAQCPLFGKACTPLNAVGACMVSSEGACGIWYRNCEV | soluble
19 | MKTNSEELTVFVQVVESGSFSRAAEQLEMANSAVSRIVKRLEEKLGVNLLNRTTRQLNLTEEGAQYFRRAQRILQEMAAAETEMLAVHEVPQGVLRVDSAMPMVLHLLAPLAAKFNERYPHIRLSLVSSEGYINLIERKVDIALRAGELDDSGLRARHLFDSHFRVVASPEYLAKHGTPQSAEDLANHQCLGFTEPGSLNTWAVLDAQGNPYKISPHFTASSGEILRSLCLSSCGIACLSDFLVDNDITEGKLIPLFAEQTSNKTHPFNAVYYSDKAVNLRLRVFLDFLVKELGKNMNRTNTK | not soluble
20 | MKTNVIIDGDACPVVNSVIELTKGTGIFVTILRSFSHFSQQIQPEHVKIVYVDDGPDAVDYKIVELASNNDIVITQDYGLASLLIDKVHTVMHHKGNIYHSNNIQSLLDQRYLNAQIRRRGGRHKGPPPFTTEDRLKFEHAFRKIINQILEHHHHHH | soluble
